Substitutions are numbered along the chain they refer to.

The values below come from patent US20220298223A1 (KING S COLLEGE LONDON, published 2022).

The target in the assay is T1, human CD19 expressed on LO68 tumor cells (human, UniProt P15391 20-556).
T1 construct: whole, on cells; also called CD19+ LO68 tumor cells; CD19-engineered LO68 tumor cells
T1 sequence (looked up): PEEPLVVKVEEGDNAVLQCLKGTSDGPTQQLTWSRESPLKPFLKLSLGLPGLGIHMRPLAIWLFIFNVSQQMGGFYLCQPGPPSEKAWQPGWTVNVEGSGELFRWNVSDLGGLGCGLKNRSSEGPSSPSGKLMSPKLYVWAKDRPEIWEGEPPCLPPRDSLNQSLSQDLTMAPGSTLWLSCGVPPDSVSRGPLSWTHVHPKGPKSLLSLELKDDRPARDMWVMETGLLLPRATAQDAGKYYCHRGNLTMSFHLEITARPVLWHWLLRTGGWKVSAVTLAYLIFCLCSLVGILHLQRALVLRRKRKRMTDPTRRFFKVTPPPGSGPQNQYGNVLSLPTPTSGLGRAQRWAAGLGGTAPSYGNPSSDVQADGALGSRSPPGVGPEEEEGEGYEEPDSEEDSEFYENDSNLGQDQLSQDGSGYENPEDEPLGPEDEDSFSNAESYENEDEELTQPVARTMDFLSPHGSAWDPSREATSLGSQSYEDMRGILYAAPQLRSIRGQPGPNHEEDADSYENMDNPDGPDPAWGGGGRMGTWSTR
Nature of the assay: z-Movi microfluidic chip, CAR T cells on a monolayer of CD19+ LO68 tumor cells, force ramp, percent bound T cells. How it is done: CD19-engineered LO68 tumor cells were seeded in a z-Movi microfluidic chip and cultured for 16 hours. The next day, flow sorted CAR-T cells were serially flowed in the chips and incubated with the target cells for 5 minutes prior to initializing a 3-minute linear force ramp. Cell detachment was determined using post-experiment using image analysis techniques.
Increasing fluidic force was applied and the percentage of bound T-cells was determined (median, n=3). […] Data are presented as median rForce which is the relative force required to elicit cell detachment, calibrated to […] polystyrene beads. Since data were not normally distributed, they are presented as median rForce which is the relative force required to elicit cell detachment and calibrated to […] polystyrene beads. […] Data shown are mean±standard error (n=11 runs, 3 independent donors). […] For clarity, a single representative run for one healthy donor is plotted in which each dot represents a single cell.

B1: G02 second generation CAR (F-2 with the second glycine of FMC63 VH CDR3 substituted by alanine), expressed on human T cells (other)
chain: DIQMTQTTSSLSASLGDRVTISCRASQDISKYLNWYQQKPDGTVKLLIYHTSRLHSGVPSRFSGSGSGTDYSLTISNLEQEDIATYFCQQGNTLPYTFGGGTKLEITGGGGSGGGGSGGGGSEVKLQESGPGLVAPSQSLSVTCTVSGVSLPDYGVSWIRQPPRKGLEWLGVIWGSETTYYNSALKSRLTIIKDNSKSQVFLKMNSLQTDDTAIYYCAKHYYYGASYAMDYWGQGTSVTVSSAAAIEVEQKLISEEDLLDNEKSNGTIIHVKGKHLCPSPLFPGPSKPFWVLVVVGGVLACYSLLVTVAFIIFWVRSKRSRLLHSDYMNMTPRRPGPTRKHYQPYAPPRDFAAYRSRVKFSRSADAPAYQQGQNQLYNELNLGRREEYDVLDKRRGRDPEMGGKPRRKNPQEGLYNELQKDKMAEAYSEIGMKGERRRGKGHDGLYQGLSTATKDTYDALHMQALPPR
notes: CAR on transduced human T cells; also called FMC63(G02)
For the molecule B1, the binding result was “binds”.

B2: Y03 second generation CAR (F-2 with the third tyrosine of FMC63 VH CDR3 substituted by alanine), expressed on human T cells (other)
chain: B1 chain with Y223A, A225G
notes: CAR on transduced human T cells; also called FMC63(Y03)
Regarding B2, the binding result is “binds”.

B3: Y04 second generation CAR (F-2 with the fourth tyrosine of FMC63 VH CDR3 substituted by alanine), expressed on human T cells (other)
chain: B1 chain with A225G, Y227A
notes: CAR on transduced human T cells; also called FMC63(Y04)
As to B3, the binding result is listed as “binds”.

B4: Y01 second generation CAR (F-2 with the first tyrosine of FMC63 VH CDR3 substituted by alanine), expressed on human T cells (other)
chain: B1 chain with Y221A, A225G
notes: CAR on transduced human T cells; also called FMC63(Y01)
Take B4: the binding result was “binds”.
